Experimental findings from patent publication US20230038638A1, “COMPLEMENT FACTOR I-RELATED COMPOSITIONS AND METHODS” (published 2023) are described below.

Substitutions are numbered along the chain they refer to.

The target in assay [1] is T1, human C4b (human) (UniProt P0C0L5).
T1 sequence: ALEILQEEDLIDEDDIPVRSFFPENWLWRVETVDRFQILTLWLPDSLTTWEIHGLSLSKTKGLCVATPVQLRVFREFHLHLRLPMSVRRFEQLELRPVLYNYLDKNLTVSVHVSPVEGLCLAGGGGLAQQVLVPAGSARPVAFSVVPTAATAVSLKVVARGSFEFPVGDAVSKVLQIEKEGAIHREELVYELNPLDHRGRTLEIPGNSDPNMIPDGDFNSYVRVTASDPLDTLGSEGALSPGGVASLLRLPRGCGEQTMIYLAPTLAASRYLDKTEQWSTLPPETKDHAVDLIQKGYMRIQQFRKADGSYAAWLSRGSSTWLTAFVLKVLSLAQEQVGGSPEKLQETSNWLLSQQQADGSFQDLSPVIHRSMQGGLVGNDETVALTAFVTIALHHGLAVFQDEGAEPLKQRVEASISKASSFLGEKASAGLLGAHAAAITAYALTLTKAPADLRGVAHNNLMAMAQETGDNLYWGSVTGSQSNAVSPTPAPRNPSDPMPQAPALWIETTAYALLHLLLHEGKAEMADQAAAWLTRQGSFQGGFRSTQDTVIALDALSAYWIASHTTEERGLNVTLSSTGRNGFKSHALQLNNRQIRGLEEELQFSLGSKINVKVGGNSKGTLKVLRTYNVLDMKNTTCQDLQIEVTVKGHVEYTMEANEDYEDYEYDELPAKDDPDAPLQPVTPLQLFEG

For assay [2], the target named is soluble human C3b (human) (UniProt P01024).
Assay [3] concerns the target T2, human C4b (human) (UniProt P0C0L4).
T2 sequence: T1 sequence with T151A, G317D, L364P, S365C, I368L, H369D, S420N, A451V, R454L, A530S

Assay [4] concerns the target soluble human C3b (human) (UniProt P01024). This is another data set of the same source.

Consider CFI-HSA variant E530F (enzyme), for which, in the assay with human C4b (human) [1], the C4b Screen Ref Fold (fold vs CFI-HSA wild type) came to 0.08. In assay [2], the iC3b Screen Ref Fold (fold vs CFI-HSA wild type) was 0.98. The same substance had a C4c EC50 (nM) with human C4b (human) [3] greater than 1000 nM. The substance further displayed an iC3b EC50 in assay [4] of 21.8 nM.
For CFI-HSA variant E530G; N531G (enzyme) the same measures were 0.04, 0.54, greater than 1000 nM and 31.3 nM.
The matching figures for CFI-HSA variant E530Y (enzyme): 0.33, 1.16, 381 nM and 16.1 nM.
For CFI-HSA variant F464Y (enzyme) the same measures were 0.55, 0.27, 347 nM and 55.4 nM.
With CFI-HSA variant F537K (enzyme), the C4b Screen Ref Fold (fold vs CFI-HSA wild type) in the assay with human C4b (human) [1] came to 0.3. Moreover, the iC3b Screen Ref Fold (fold vs CFI-HSA wild type) in assay [2] was determined as 1.28. This substance also had a C4c EC50 (nM) with human C4b (human) [3] of 890 nM. In assay [4], the iC3b EC50 was 40.2 nM.
For the substance CFI-HSA variant F537R (enzyme), the C4b Screen Ref Fold (fold vs CFI-HSA wild type) in the assay with human C4b (human) [1] was determined as 0.16. In addition, the iC3b Screen Ref Fold (fold vs CFI-HSA wild type) in assay [2] turned out to be 1.08. Also, the C4c EC50 (nM) with human C4b (human) [3] was determined as 645 nM. Besides, in assay [4], the iC3b EC50 is 29.1 nM.
Regarding CFI-HSA variant F559L; Y563H (enzyme), the C4b Screen Ref Fold (fold of CFI-HSA wild type) with human C4b (human) [1] came to 1.03. The iC3b Screen Ref Fold (fold of CFI-HSA wild type) in assay [2] amounted to 0.71. The C4c EC50 with human C4b (human) [3] was 130 nM. For the same substance, the iC3b EC50 in assay [4] came to 39.6 nM.
On to CFI-HSA variant G556A (enzyme), for which the C4b Screen Ref Fold (fold of CFI-HSA wild type) with human C4b (human) [1] turned out to be 1.06. Also, the iC3b Screen Ref Fold (fold of CFI-HSA wild type) in assay [2] turned out to be 0.15. In the assay with human C4b (human) [3], this substance displayed a C4c EC50 greater than 1000 nM. The substance also returned an iC3b EC50 in assay [4] of 76 nM.
The matching figures for CFI-HSA variant G556S (enzyme): 1.53, 0.55, 180 nM and 29.7 nM.
CFI-HSA variant K504A (enzyme): in the assay with human C4b (human) [1], the C4b Screen Ref Fold (fold vs CFI-HSA wild type) was found to be 0.23. For the same substance, the iC3b Screen Ref Fold (fold vs CFI-HSA wild type) in assay [2] came to 0.41. This substance also had a C4c EC50 (nM) with human C4b (human) [3] greater than 1000 nM. Also, in assay [4], the iC3b EC50 was 51.9 nM.
For CFI-HSA variant K504H (enzyme) the same measures were 3.84, 0.54, 229 nM and 53.6 nM.
The matching figures for CFI-HSA variant K504L (enzyme): 0.01, 0.12, greater than 1000 nM and 144 nM.
The matching figures for CFI-HSA variant K504R (enzyme): 0.51, 0.89, 439 nM and 33.7 nM.
CFI-HSA variant K534Q (enzyme): in the assay with human C4b (human) [1], the C4b Screen Ref Fold (fold vs CFI-HSA wild type) turned out to be 1.76. The iC3b Screen Ref Fold (fold vs CFI-HSA wild type) in assay [2] amounted to 1.53. This substance also returned a C4c EC50 (nM) with human C4b (human) [3] of 595 nM. In assay [4], this substance gave an iC3b EC50 of 21.7 nM.
In the case of CFI-HSA variant N422K (enzyme), the C4b Screen Ref Fold (fold vs CFI-HSA wild type) with human C4b (human) [1] amounted to 2.13. For the same substance, the iC3b Screen Ref Fold (fold vs CFI-HSA wild type) in assay [2] came to 1.36. For the same substance, the C4c EC50 (nM) with human C4b (human) [3] amounted to 359 nM. The substance further showed an iC3b EC50 in assay [4] of 10.9 nM.
For CFI-HSA variant N476Q (enzyme) the same measures were 0.85, 1.03, greater than 1000 nM and 15.7 nM.
For CFI-HSA variant N518Q (enzyme) the same measures were 1.11, 1, 510 nM and 20.2 nM.
On to CFI-HSA variant N531G; D425K (enzyme), for which the C4b Screen Ref Fold (fold of CFI-HSA wild type) with human C4b (human) [1] turned out to be 4.7. Also, the iC3b Screen Ref Fold (fold of CFI-HSA wild type) in assay [2] was 1.19. The same substance gave a C4c EC50 with human C4b (human) [3] of 51.9 nM. In assay [4], this substance came in with an iC3b EC50 of 5.2 nM.
With CFI-HSA variant N531G; E416A (enzyme), the C4b Screen Ref Fold (fold of CFI-HSA wild type) with human C4b (human) [1] stood at 4.82. For the same substance, the iC3b Screen Ref Fold (fold of CFI-HSA wild type) in assay [2] is 1.11. The substance also gave a C4c EC50 (nM) in the assay with human C4b (human) [3] of 11.9 nM. Also, the iC3b EC50 in assay [4] was 6.9 nM.
With “CFI-HSA variant N531G; E457G; E461Q (enzyme)”, the C4b Screen Ref Fold (fold vs CFI-HSA wild type) with human C4b (human) [1] is 6.42. Further, the iC3b Screen Ref Fold (fold vs CFI-HSA wild type) in assay [2] worked out at 0.95. The substance also showed a C4c EC50 (nM) with human C4b (human) [3] of 29.3 nM. In assay [4], this substance gave an iC3b EC50 of 5.6 nM.
CFI-HSA variant N531G; N422K (enzyme): the C4b Screen Ref Fold (fold of CFI-HSA wild type) with human C4b (human) [1] was determined as 4.68. Moreover, the iC3b Screen Ref Fold (fold of CFI-HSA wild type) in assay [2] was determined as 2.43. The same substance gave a C4c EC50 with human C4b (human) [3] of 42.6 nM. Besides, the iC3b EC50 in assay [4] amounted to 5.2 nM.
Turning to CFI-HSA variant N531G; P535A (enzyme), in the assay with human C4b (human) [1], the C4b Screen Ref Fold (fold vs CFI-HSA wild type) was determined as 5.6. The iC3b Screen Ref Fold (fold vs CFI-HSA wild type) in assay [2] was determined as 1.53. Moreover, in the assay with human C4b (human) [3], the C4c EC50 (nM) worked out at 53.4 nM. In assay [4], the iC3b EC50 was 7.9 nM.
Consider CFI-HSA variant P535G; D425K (enzyme), for which the C4b Screen Ref Fold (fold of CFI-HSA wild type) with human C4b (human) [1] is 0.1. The iC3b Screen Ref Fold (fold of CFI-HSA wild type) in assay [2] was 0.53. For the same substance, in the assay with human C4b (human) [3], the C4c EC50 was found to be 865 nM. For the same substance, in assay [4], the iC3b EC50 came to 19.4 nM.
With CFI-HSA variant P535G; E416A (enzyme), the C4b Screen Ref Fold (fold of CFI-HSA wild type) in the assay with human C4b (human) [1] worked out at 0.13. For the same substance, in assay [2], the iC3b Screen Ref Fold (fold of CFI-HSA wild type) turned out to be 0.53. The substance also registered a C4c EC50 (nM) with human C4b (human) [3] greater than 1000 nM. For the same substance, the iC3b EC50 in assay [4] is 41.6 nM.
Regarding CFI-HSA variant P558A (enzyme), the C4b Screen Ref Fold (fold of CFI-HSA wild type) with human C4b (human) [1] stood at 1.21. Also, the iC3b Screen Ref Fold (fold of CFI-HSA wild type) in assay [2] came to 0.87. Further, the C4c EC50 in the assay with human C4b (human) [3] worked out at 213 nM. In addition, the iC3b EC50 in assay [4] is 20.8 nM.
Take CFI-HSA variant P558L (enzyme): the C4b Screen Ref Fold (fold vs CFI-HSA wild type) with human C4b (human) [1] came to 0.89. For the same substance, the iC3b Screen Ref Fold (fold vs CFI-HSA wild type) in assay [2] came to 0.99. This substance also had a C4c EC50 (nM) with human C4b (human) [3] of 472 nM. Moreover, in assay [4], the iC3b EC50 stood at 12.4 nM.
The matching figures for CFI-HSA variant Q467K (enzyme): 3.04, 0.95, 246 nM and 18.7 nM.
The matching figures for CFI-HSA variant Q467K; F537K (enzyme): 0.85, 1.31, 615 nM and 12.7 nM.
Regarding CFI-HSA variant Q467R (enzyme), the C4b Screen Ref Fold (fold vs CFI-HSA wild type) with human C4b (human) [1] stood at 0.48. Moreover, the iC3b Screen Ref Fold (fold vs CFI-HSA wild type) in assay [2] is 0.59. Further, the C4c EC50 (nM) with human C4b (human) [3] came out at 399 nM. The same substance gave an iC3b EC50 in assay [4] of 27.1 nM.
For CFI-HSA variant R557K (enzyme) the same measures were 3.09, 0.28, 266 nM and 99.9 nM.
The matching figures for CFI-HSA variant Y408F (enzyme): 1.88, 0.61, 225 nM and 19.2 nM.
For CFI-HSA variant Y408H (enzyme), the C4b Screen Ref Fold (fold vs CFI-HSA wild type) with human C4b (human) [1] was 0.05. Further, in assay [2], the iC3b Screen Ref Fold (fold vs CFI-HSA wild type) amounted to 0.82. In addition, in the assay with human C4b (human) [3], the C4c EC50 (nM) is greater than 1000 nM. Moreover, in assay [4], the iC3b EC50 was 43.3 nM.
The matching figures for CFI-HSA variant Y408L-N531G (enzyme): 5.29, 1.09, 70.5 nM and 10.6 nM.
